Source: US20220112273A1 (University of Pennsylvania, published 2022)

Tests used:
[1] = biological target: recombinant HIV-1 Env (subtype B; MN) protein (HIV-1 (subtype B, MN), UniProt P05877 32-513); assay: binding ELISA, serial dilutions of day 14 mouse sera (FIG. 64A)
[2] = biological target: Env of pseudotyped HIV-1 Bal26 virus (clade B, tier 1) (HIV-1 (clade B, Bal26)); assay: cell-based or functional assay
[3] = biological target: Env of pseudotyped HIV-1 SF162S virus (clade B, tier 1) (HIV-1 (clade B, SF162S)); assay: cell-based or functional assay
[4] = biological target: Env of pseudotyped HIV-1 Q23Env17 virus (clade A, tier 1) (HIV-1 (clade A, Q23Env17)); assay: cell-based or functional assay

B1: CHIKV-Env-Fab (Fab, V domains shown)
VH: QVQLVQSGSELKKPGASVKVSCKASGYTLTRYAMTWVRQAPGQGLEWMGWINTYTGNPTYVQGFTGRFVFSLDTSVSTAFLHITSLKAEDTAVYFCAREGGARGFDYWGQGTLVTVSS
VL: QSVLTQPPSVSGAPGQRVTISCTGSSSNIGASHDVHWYQQLPGTAPTLLIYVNSNRPSGVPDRFSGSKSGTSASLAITGLQAEDEADYYCQSYDSNLSGSAVFGGGTKLTVLG
- binding result [1]: no binding

B2: HIV-1 Env-Fab (Fab generated from the VRC01 antibody, expressed from pHIV-1Env-Fab) (Fab, V domains shown)
VH: QVQLVQSGGQMKKPGESMRISCRASGYEFIDCTLNWIRLAPGKRPEWMGWLKPRGGAVNYARPLQGRVTMTRDVYSDTAFLELRSLTVDDTAVYFCTRGKNCDYNWDFEHWGRGTPVIVSS
VL: QIVLTQSPGTLSLSPGETAIISCRTSQYGSLAWYQQRPGQAPRLVIYSGSTRAAGIPDRFSGSRWGPDYNLTISNLESGDFGVYYCQQYEFFGQGTKVQVDI
- plateau percent neutralization (TZM-Bl luciferase assay, sera at 1:50) [2]: ~62%
- plateau percent neutralization (TZM-Bl luciferase assay, sera at 1:50) [3]: ~70%
- plateau percent neutralization (TZM-Bl luciferase assay, sera at 1:50) [4]: ~60%

B3: CHIKV-IgG (full-length anti-CHIKV Env human IgG from a single plasmid) (antibody, V domains shown)
VH: QVQLQQPGAALVKPGASAMMSCKASGYTFTSYWITWVKQRPGQGLEWIGDIYPGTGRTIYKEKFKTKATLTVDTSSSTAFMQLNSLTSEDSAVYYCARGYGSPYYALDYWGQGTSVTVSS
VL: DIVLTQSPASLAVSQGQRATISCKASQSVDYDGDSYVNWYQQKPGQSPKLLIYDASNLESGIPARFSGSGSGTDFTLNIHPVEEEDVATYYCQESNEDPRTFGGGTKLEIKR
- binding result [1]: no binding
